Columns and labels:
ERα = molecular target: T1, ERα (Homo sapiens, UniProt P03372); experiment: Phage ELISA / fingerprint on ER immobilized on biotinylated ERE (Examples 2.3-2.5); assay type: binding; set-up: purchased PanVera Corporation, Madison, WI; key to binding activity, ERα and buffer / binding activity, ERα and estradiol / binding activity, ERα and tamoxifen / binding of peptide, Class Specific Fingerprint on ERα: semiquantitative scale of 0 to 7+; 1+: semiquantitative scale of 0 to 7+; 2+: semiquantitative scale of 0 to 7+; 3+: semiquantitative scale of 0 to 7+; 4+: semiquantitative scale of 0 to 7+; 5+: semiquantitative scale of 0 to 7+; 6+: semiquantitative scale of 0 to 7+; semiquantitative scale of 0 to 7+; details: for binding activity, ERα and estradiol: ERα and estradiol (1 µM); for binding activity, ERα and tamoxifen: ERα and tamoxifen (4-OH tamoxifen, 1 µM)
T1 sequence (P03372 1-595): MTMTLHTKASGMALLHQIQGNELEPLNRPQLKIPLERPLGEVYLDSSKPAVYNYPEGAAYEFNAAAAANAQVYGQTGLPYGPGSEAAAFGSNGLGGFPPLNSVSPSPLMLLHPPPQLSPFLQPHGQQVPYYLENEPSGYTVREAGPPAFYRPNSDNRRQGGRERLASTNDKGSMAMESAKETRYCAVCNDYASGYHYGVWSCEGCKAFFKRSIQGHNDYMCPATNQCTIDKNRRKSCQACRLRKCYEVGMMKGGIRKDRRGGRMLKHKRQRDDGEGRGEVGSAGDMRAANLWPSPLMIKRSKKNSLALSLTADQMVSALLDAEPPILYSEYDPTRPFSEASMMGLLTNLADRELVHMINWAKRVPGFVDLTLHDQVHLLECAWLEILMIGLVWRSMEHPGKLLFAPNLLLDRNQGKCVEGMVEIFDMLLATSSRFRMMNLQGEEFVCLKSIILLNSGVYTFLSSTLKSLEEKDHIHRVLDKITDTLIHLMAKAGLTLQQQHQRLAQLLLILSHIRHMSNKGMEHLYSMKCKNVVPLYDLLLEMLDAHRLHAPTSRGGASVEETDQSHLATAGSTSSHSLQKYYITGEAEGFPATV

ERβ = ERβ (Homo sapiens, UniProt Q92731); experiment: as above; assay type: binding; set-up: purchased PanVera Corporation, Madison, WI; key: semiquantitative scale of 0 to 7+; 1+: semiquantitative scale of 0 to 7+; 2+: semiquantitative scale of 0 to 7+; 3+: semiquantitative scale of 0 to 7+; 4+: semiquantitative scale of 0 to 7+; 5+: semiquantitative scale of 0 to 7+; 6+: semiquantitative scale of 0 to 7+; semiquantitative scale of 0 to 7+; details: for binding activity, ERβ and Estradiol: ERβ and Estradiol (1 µM); for binding activity, ERβ and tamoxifen: ERβ and tamoxifen (4-OH tamoxifen, 1 µM)
Sequence of ERβ (Q92731 whole entry): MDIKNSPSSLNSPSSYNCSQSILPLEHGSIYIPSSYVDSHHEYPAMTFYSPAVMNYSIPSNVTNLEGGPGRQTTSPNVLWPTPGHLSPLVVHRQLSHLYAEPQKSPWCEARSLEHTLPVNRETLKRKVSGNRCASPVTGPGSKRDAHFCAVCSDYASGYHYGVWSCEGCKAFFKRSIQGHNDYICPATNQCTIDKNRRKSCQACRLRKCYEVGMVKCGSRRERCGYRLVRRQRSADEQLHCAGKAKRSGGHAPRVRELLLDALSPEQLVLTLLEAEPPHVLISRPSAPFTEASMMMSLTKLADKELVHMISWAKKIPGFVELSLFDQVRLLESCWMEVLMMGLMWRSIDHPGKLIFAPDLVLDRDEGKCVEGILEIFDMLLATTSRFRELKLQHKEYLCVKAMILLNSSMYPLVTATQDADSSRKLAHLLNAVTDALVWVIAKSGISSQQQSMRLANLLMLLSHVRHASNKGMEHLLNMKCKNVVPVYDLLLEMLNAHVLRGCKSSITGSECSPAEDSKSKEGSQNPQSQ

Row | Sequence | binding activity, ERα and buffer (ERα) | binding activity, ERα and estradiol (ERα) | binding activity, ERα and tamoxifen (ERα) | binding activity, ERβ and Estradiol (ERβ) | binding activity, ERβ and buffer (ERβ) | binding activity, ERβ and tamoxifen (ERβ)
1 | SRLEDLLRGDSKPQSR [Peptide 7E-β] | 4+ | 6+ | 3+ | 6+ | 5+ | 1+
2 | SRLEELLRVGVLTSR [Peptide 6E-β] | 3+ | 5+ | 3+ | 7+ | 3+ | 1+
3 | SRLHCLLDSSYCSSR [Peptide 1b-β] | 4+ | 7+ | 3+ | 7+ | 7+ | 2+
4 | SRLHDLLLRDESPSR [Peptide 3E-β] | 4+ | 5+ | 4+ | 6+ | 3+ | 1+
5 | SRLPPSVFSMCGSEVCLSR [Peptide 9t-β] | 3+ | 3+ | 6+ | 2+ | 3+ | 7+
6 | SRPYCLGDVWCLDSR [Peptide 2t-β] | 2+ | 2+ | 3+ | 6+ | 7+ | 7+
7 | SRSPILWHLLQDGSR [Peptide 10E-β] | 5+ | 6+ | 4+ | 7+ | 4+ | 2+
8 | SSARPWWLQFEGSSR [Peptide 7t-β] | 2+ | 2+ | 2+ | 7+ | 7+ | 7+
9 | SSDTRSRLYELLSSSYTSR [Peptide 5E-β] | 4+ | 6+ | 4+ | 7+ | 5+ | 2+
10 | SSGLPPNFERMLKSR [Peptide 6b-β] | 5+ | 3+ | 3+ | 2+ | 6+ | 2+
11 | SSGPFYVGGMLWPADCLSR [Peptide 10t-β] | 4+ | 3+ | 6+ | 2+ | 4+ | 7+
12 | SSGPWLMHYLGGGSR [Peptide 7b-β] | 2+ | 4+ | 3+ | 7+ | 7+ | 2+
13 | SSIKDFPNLISLLSR [Peptide 12E-β] | 2+ | 2+ | 2+ | 7+ | 4+ | 1+
14 | SSILERLLGGGSAETV [Peptide 9E-β] | 3+ | 4+ | – | 7+ | 4+ | 1+
15 | SSLDLSQFPMTASFLRESR [Peptide 35E-β] | 2+ | 2+ | 2+ | 6+ | 2+ | 1+

Continued, values first:

Row | binding activity, ERα and buffer (ERα) | binding activity, ERα and estradiol (ERα) | binding activity, ERα and tamoxifen (ERα) | binding activity, ERβ and Estradiol (ERβ) | binding activity, ERβ and buffer (ERβ) | binding activity, ERβ and tamoxifen (ERβ) | Sequence
16 | 7+ | 6+ | 7+ | 3+ | 6+ | 7+ | SRLNGVFCHDSSDLWVCSR [Peptide 18t-β]
17 | 7+ | 6+ | 7+ | 5+ | 7+ | 7+ | SRMFQVCGDEVCLRSR [Peptide 16t-β]
18 | 3+ | 2+ | 4+ | 7+ | 7+ | 7+ | SRNECIGPWCLTISR [Peptide 13t-β]
19 | 5+ | 4+ | 4+ | 7+ | 3+ | 1+ | SRNLLCLLDQEACSR [Peptide 17E-β]
20 | 5+ | 6+ | 4+ | 7+ | 5+ | 2+ | SRPEGSSWLLHYLSR [Peptide 24E-β]
21 | 2+ | 2+ | 3+ | 6+ | 7+ | 7+ | SRPGCLRGVWCLADTPPSR [Peptide 20t-β]
22 | 6+ | 4+ | 5+ | 7+ | 5+ | 2+ | SRWWLDDHELLLYSSR [Peptide 26E-β]
23 | 4+ | 5+ | 3+ | 7+ | 3+ | 1+ | SSAGLLEDMLRSRSR [Peptide 21E-β]
24 | 1+ | 2+ | 2+ | 7+ | 7+ | 7+ | SSDLHRDCLGVWCLSR [Peptide 17t-β]
25 | 4+ | 4+ | 6+ | 6+ | 6+ | 7+ | SSDLYSQMREFFQINLSR [Peptide 23t-β]
26 | 5+ | 4+ | 5+ | 6+ | 2+ | 1+ | SSGSSAGRLMMLLQDGVSR [Peptide 13E-β]
27 | 6+ | 6+ | 5+ | 7+ | 4+ | – | SSHCHTRLCSLLTSR [Peptide 15E-β]
28 | 5+ | 4+ | 4+ | 6+ | 7+ | 7+ | SSIPPRSWWLSQLSR [Peptide 19b-β]
29 | 3+ | 4+ | 6+ | 4+ | 5+ | 7+ | SSISTYHMGEWFYAMLSSR [Peptide 22t-β]
30 | 6+ | 7+ | 3+ | 7+ | 7+ | 3+ | SSKLYCLLDESYCSR [Peptide 21b-β]
